Laboratory results taken from patent US6703364B2, “Thrombin generation inhibitors” (Cleveland State University, priority 2001, dated 2004).
“Also recorded” adds a separate entry of the source. One block for each compound: values may come before it. Residues, ends and D or L forms follow the SMILES beside them. No end group written: not given here.

Columns and labels:
prothrombinase [1] = molecular target: T1, prothrombinase (Homo sapiens, UniProt P00742); assay: fluorescent prothrombinase assay (DAPA; conversion of prothrombin to α-thrombin); format: biochemical; details: for IC50: fluorescent assay, DAPA fluorescence, read-out: IC50 for inhibition of prothrombinase activity
T1 construct: purchased Haematologic Technologies, Inc
Description: The assay used to obtain the data shown in FIG. 4 is a fluorescent assay that is described in Example 3 of this document. Briefly, the fluorescent assay, in contrast to the visual assay, measures only one reaction of the many necessary for formation of a blood clot. The fluorescent assay measures conversion of prothrombin to a-thrombin as catalyzed by prothrombinase. A fluorescent assay reaction contains prothrombin, factor Xa, factor Va and a preparation of phospholipid vesicles, which facilitate assembly of the aforementioned components into a functioning prothrombinase enzyme.
Each fluorescent assay also contains a fluorescent compound called dansylarginine-N-(3-ethyl-1,5-pentanediyl)amide (or DAPA for short). DAPA specifically binds to α-thrombin, the product of the prothrombinase reaction. Binding of DAPA by α-thrombin increases the fluorescence intensity of DAPA. In the case where no peptide inhibitor of prothrombinase is present in the reaction, high levels of α-thrombin are produced in the reaction, and DAPA fluorescence is high. When a peptide inhibitor of prothrombinase is present, little α-thrombin is produced in the reaction, and DAPA fluorescence is low. Therefore, by measuring DAPA fluorescence, the inhibitory ability of each peptide is determined.
The identity of reactions containing each peptide, as well as the reactions containing no peptide (labeled “Xa/Va”) or no peptide and no factor Va (labeled “Xa”) is shown on the x-axis of FIG. 4.
Activities of prothrombinase, as measured by DAPA fluorescence, are shown on the y-axis of FIG. 4. […] DAPA fluorescence in the absence of both peptide and factor Va (the bar labeled “APXa” in FIG. 4) is 9% of the APXa/Va activity, and is background fluorescence.
The fluorescence assay specifically measured the conversion of prothrombin to α-thrombin, one essential reaction of the many required for blood clotting (see FIG. 1). […]
The fluorescent properties of DAPA were contributed by the dansyl moiety. When bound to α-thrombin, the fluorescence intensity and lifetime of the dansyl moiety were increased three-fold. Therefore, in this assay, when prothrombinase activity was uninhibited, α-thrombin was produced (see FIG. 1) and DAPA fluorescence was high. When prothrombinase activity was inhibited, as in the presence of peptide prothrombinase inhibitors, α-thrombin was not produced and DAPA fluorescence was low.
In a typical assay, the final concentrations of reagents were as follows: prothrombin, 1.4 μM; factor Xa, 10 nM; factor Va, 1 nM; phospholipid vesicles, 20 μM; DAPA, 3 μM; peptide, 100 μM. […] After centrifugation to isolate the vesicles, the concentration of the vesicles was determined by phosphorus assay (Gomori, 1942, J Lab Clin Med, 27:955-60). […]

prothrombinase [2] = molecular target: T1, prothrombinase; assay: visual blood clotting assay (factor V-depleted plasma, thromboplastin, factor Va); format: biochemical; details: increasing peptide concentrations, as high as 250 μM
Description: FIG. 3 is a graph showing inhibition of prothrombinase activity by the 42 amino acid peptide NR42, encompassing amino acids 307-348 of the human factor Va heavy chain (SEQ ID NO. 2). The assay used to obtain the data shown in FIG. 3 is a visual blood clotting assay that is described in detail in Example 2 of this document.
Briefly, in the visual blood clotting assay, reactions are set up that contain all components of the blood necessary to form a blood clot and the time required for formation of a visual blood clot is recorded. To test inhibitory activity of the NR42 peptide, different concentrations of NR42 are added to a series of such reactions. […] The time required for an observable blood clot to form in the absence of NR42 peptide (0 μM peptide on the x-axis) is designated as 100% prothrombinase activity, as shown on the y-axis of FIG. 3. Inhibition of blood clotting by […] results in longer clotting times. Longer clotting times are shown on the y-axis of the graph as decreased prothrombinase activity. […]
Factor Va was purchased or, alternatively was produced by treatment of 50 nM of purified factor V (Haematologic Technologies, Inc.) with 1 nM α-thrombin for 10 min followed by the addition of 2 nM hirudin. […] This time was arbitrarily determined to be 100% activity. […]

[3] = molecular target: factor Xa (Homo sapiens (Human)) (UniProt P00742)
[4] = molecular target: prothrombinase (factor Xa plus factor Va) (human) (UniProt P00742)
[5] = series of peptide concentrations

T1 sequence (P00742 41-179 limits assumed): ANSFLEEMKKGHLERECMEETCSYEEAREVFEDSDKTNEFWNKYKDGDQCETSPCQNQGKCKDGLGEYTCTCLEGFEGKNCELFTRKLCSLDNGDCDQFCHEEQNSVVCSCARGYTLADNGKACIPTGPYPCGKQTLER
T1 sequence (P00742 235-488 limits assumed): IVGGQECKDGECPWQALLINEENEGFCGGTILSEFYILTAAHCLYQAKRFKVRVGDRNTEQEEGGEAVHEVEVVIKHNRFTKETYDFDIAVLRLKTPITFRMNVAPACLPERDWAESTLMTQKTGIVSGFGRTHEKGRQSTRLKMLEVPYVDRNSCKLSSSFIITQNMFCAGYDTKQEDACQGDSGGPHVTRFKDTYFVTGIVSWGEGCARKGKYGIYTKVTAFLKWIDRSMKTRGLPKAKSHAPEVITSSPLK

IC50 (prothrombinase [1]; [5]): ~30 µM
Compound: CC[C@H](C)[C@H](N)C(=O)N[C@@H](Cc1c[nH]c2ccccc12)C(=O)N[C@@H](CC(=O)O)C(=O)N[C@@H](Cc1ccc(O)cc1)C(=O)N[C@@H](C)C(=O)N1CCC[C@H]1C(=O)N[C@H](C(=O)N[C@H](C(=O)N1CCC[C@H]1C(=O)N[C@@H](C)C(=O)O)[C@@H](C)CC)C(C)C [AP6, Ile Trp Asp Tyr Ala Pro Val Ile Pro Ala] (H-IWDYAPVIPA-OH)

IC50 (prothrombinase [1]; [5]): ~5 µM
Compound: CC[C@H](C)[C@H](NC(=O)[C@H](Cc1ccccc1)NC(=O)[C@H](Cc1ccc(O)cc1)NC(=O)[C@H](CCC(=O)O)NC(=O)[C@@H](N)Cc1c[nH]c2ccccc12)C(=O)N[C@@H](C)C(=O)N[C@@H](C)C(=O)N[C@@H](CCC(=O)O)C(=O)N[C@@H](CCC(=O)O)C(=O)N[C@H](C(=O)O)C(C)C [AP4, Trp Glu Tyr Phe Ile Ala Ala Glu Glu Val] (H-WEYFIAAEEV-OH)

effect on blood clotting time and prothrombinase activity (in words) (prothrombinase [2]; listed as D13R): did not inhibit prothrombinase activity
Compound: DR13: control peptide encompassing amino acids 697 to 709 of the factor Va heavy chain (DADSDYQDELALI)
effect on blood clotting time and prothrombinase activity (in words) (prothrombinase [2]): do not significantly affect blood clotting time and prothrombinase activity

Compound: P15H: 15 amino acid peptide encompassing amino acids 337-351 of human factor Va; used as negative control (PIIPANMDKKYRSLH) [Peptide P15H]
inhibition of prothrombinase activity (in words) (prothrombinase [1]; series of peptide concentrations, up to approximately 500 μM): did not inhibit prothrombinase; also recorded: does not inhibit prothrombinase activity

prothrombinase activity relative to the no peptide reaction (prothrombinase [1]; 100 μM peptide, no peptide reaction (Xa/Va) = 100%, remaining activity): approximately 80%
Compound: NMDKKYRSQH [AP8, 10 amino acid peptide adjacent to and overlapping AP9]

prothrombinase activity by DAPA fluorescence, factor Xa with and without factor Va (% of the Xa/Va activity) [3]: 9
Compound: factor Va (from UniProt P12259)

IC50, inhibition of prothrombinase, fluorescent assay (DAPA) [4]: 10 to 15 µM
Compound: EYFAE (peptide)
